Data as given in PMC2959088.

Target: human cathepsin L (human)
Assay: enzyme inhibition assay (residual activity on the fluorogenic substrate Z-Phe-Arg-MCA); cathepsin B or L (0.3 nM) incubated 5 min at 37°C with varied inhibitor in 100 mM sodium acetate pH 5.5, 2.5 mM DTT; substrate 0.01 mM; triplicate; Ki(app) by non linear regression (GraFit), Ki by Morrison's procedure

Ki: 0.73 nM
B1: Oryzacystatin-1 (natural protein)
chain: MSSDGGPVLGGVEPVGNENDLHLVDLARFAVTEHNKKANSLLEFEKLVSVKQQVVAGTLYYFTIEVKEGDAKKLYEAKVWEKPWMDFKELQEFKPVDASANA
